Patent US12227593B2, “Site-specific conjugation of glycosylated monoclonal antibodies with transglutaminase” (Janssen Biotech, Inc., priority 2020, dated 2025)

molecular target: T1, MTG (Streptomyces mobaraensis, UniProt P81453); test: MTG-catalyzed conjugation of 3-APA to mAbs, degree of labeling (DOL) by LC-MS; format: biochemical, S. mobarensis; conditions: different IgG backgrounds, MTG and 3-APA at 37° C., per full mAb
T1 construct: purchased Activa TI or Zedira
T1 sequence (P81453 77-407): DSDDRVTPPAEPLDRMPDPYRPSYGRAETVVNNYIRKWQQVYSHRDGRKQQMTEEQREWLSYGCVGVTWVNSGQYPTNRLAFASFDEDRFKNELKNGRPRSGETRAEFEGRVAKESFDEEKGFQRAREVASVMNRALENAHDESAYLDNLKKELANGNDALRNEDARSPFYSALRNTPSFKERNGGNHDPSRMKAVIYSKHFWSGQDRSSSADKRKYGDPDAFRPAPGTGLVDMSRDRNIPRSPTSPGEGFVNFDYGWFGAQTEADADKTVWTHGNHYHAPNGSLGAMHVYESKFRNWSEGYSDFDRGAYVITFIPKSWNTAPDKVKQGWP
Experimental: To assess the suitability of the mAb variants for MTG-catalyzed conjugation, intact mAbs (1 mg/mL) were reacted with 3-azido propylamine (3-APA; 20-100-fold molar excess) and MTG (Activa TI, 5-20% w/v or Zedira, 5-20 units/mg of mAb) in PBS buffer at 22-37° C. for 30 min to overnight. Reactions were stopped by the addition of MTG blocker (Zedira) to 100 μM and analyzed by LC-MS following deglycosylation with PNGase F and reduction with dithiothreitol. The degree of labeling (DOL) was determined by mass spectrometry.
LC-MS was performed on an Agilent 1260 HPLC system connected to an Agilent G6224 MS-TOF Mass Spectrometer. LC was run on an Agilent RP-mAb C4 column (2.1×50 mm, 3.5 micron) at a flow rate of 1 mL/min with the mobile phase 0.1% formic acid in water (A) and 0.1% formic acid in acetonitrile (Sigma-Aldrich Cat #34688) (B) and a gradient of 20% B (0-2 min), 20-60% B (2-3 min), 60-80% B (3-5.5 min). The instrument was operated in positive electro-spray ionization mode and scanned from m/z 600 to 6000. Mass to charge spectrum was deconvoluted using the Maximum Entropy algorithm and DOL was estimated using relative intensities of the deconvoluted masses corresponding to intact mAb (for intact mass) or mAb heavy chain (for reduced mass) with the addition of multiples of 83 Da (corresponding to 3-APA).
Instrument settings included: capillary voltage 3500V; fragmentor 175V; skimmer 65V; gas temperature 325C; drying gas flow 5.0 L/min; nebulizer pressure 30 psig; acquisition mode range 100-7000 with 0.42 scan rate.

In order of rising “DOL 18 hr” value:
1. Panitumumab [Panitumumab WT]  1.2
2. Pertuzumab [Pertuzumab WT]  1.2
3. Panitumumab WT deglycosylated: deglycosylated WT panitumumab  2.0
4. Pertuzumab WT deglycosylated: deglycosylated WT pertuzumab  2.0
